Test results published in patent publication US20220403048A1 (CANCER RESEARCH TECHNOLOGY, published 2022).
Residue numbers refer to the chain shown, from its start.

T1: THP-1 lysate derived human trimeric ARG2 (human, UniProt P78540 23-354, limits assumed)
T1 sequence (looked up): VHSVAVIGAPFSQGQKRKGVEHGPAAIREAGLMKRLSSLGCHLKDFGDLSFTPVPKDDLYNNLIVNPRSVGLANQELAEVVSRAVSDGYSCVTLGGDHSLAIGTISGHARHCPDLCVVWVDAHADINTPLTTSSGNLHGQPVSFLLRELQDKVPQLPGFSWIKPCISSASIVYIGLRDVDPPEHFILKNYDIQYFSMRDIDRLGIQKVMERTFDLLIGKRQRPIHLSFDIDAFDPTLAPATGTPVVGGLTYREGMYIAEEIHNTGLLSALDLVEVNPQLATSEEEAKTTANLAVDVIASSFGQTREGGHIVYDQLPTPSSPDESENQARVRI

T2: recombinant human trimeric ARG2 enzyme (construct not given) (human, UniProt P78540 23-354)
T2 sequence (looked up): T1 sequence (looked up)

T3: biotinylated recombinant human trimeric ARG2 enzyme (Avi-huARG2-His10) (human, UniProt P78540 23-354, biotinylated)
T3 construct: also called avi-Arg2-His10; bio-ARG2
T3 chain: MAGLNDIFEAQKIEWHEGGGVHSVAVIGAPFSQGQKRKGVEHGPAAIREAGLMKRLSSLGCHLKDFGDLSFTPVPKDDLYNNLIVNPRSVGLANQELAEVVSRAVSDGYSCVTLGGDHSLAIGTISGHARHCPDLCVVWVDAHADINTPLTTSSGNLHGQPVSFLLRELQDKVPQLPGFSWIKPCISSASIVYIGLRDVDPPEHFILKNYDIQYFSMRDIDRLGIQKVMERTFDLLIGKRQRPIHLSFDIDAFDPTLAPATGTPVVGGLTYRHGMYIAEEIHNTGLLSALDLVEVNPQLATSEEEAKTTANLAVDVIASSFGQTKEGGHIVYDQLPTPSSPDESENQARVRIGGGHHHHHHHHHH

B1: C0021144 recombinant human IgG1 (antibody, V domains shown)
VH: EVQLLESGGGLVQPGGSLRLSCAASGFTFRYDYHVWVRQAPGKGLEWVSAISGSGGSTYYADSVKGRFTISRDNSKNTLYLQMNSLRAEDTAVYYCARLRADLGLYMDLWGRGTLVTVSS
VL: QSVLTQPPSVSAAPGQKVTVSCSGSSSNIGNHHVSWYQQLPGTAPKLLIYDTTVLSSGVPDRFSGSKSGTSATLGITGLQTGDEADYYCGTWDELTSNLVFGGGTKLTVL
B2: C0021155 recombinant human IgG1 (antibody, V domains shown)
VH: B1 VH with A23E, S63P
VL: B1 VL with Q1R, V20I, H33Y, V59I, K106R
B3: C0021181 recombinant human IgG1 (antibody, V domains shown)
VH: B1 VH with Q13R, G26E, G66S
VL: B1 VL with T19A, N31S, H33Y, T52N, T53S, V54E, L55R, S56T, V59I, K106R
B4: C0021180 recombinant human IgG1 (antibody, V domains shown)
VH: B1 VH with D32E, Y33V, H34A, V35A, S54P, G55I, G56P, S57K, T58G
VL: QSVLTQPPTVSAAPGRKVTISCSGSSSNIGDHHVSWYQQLPGAAPKLLIYDTDHMASGIPDRFSGSRSGTSATLGITGLQTGDEADYYCGTWDSSLSALVFGGGTKLTVL
B5: C0021177 recombinant human IgG1 (antibody, V domains shown)
VH: B1 VH with D32E, Y33V, H34A, V35A, S54P, G55A, G56P, S57K, T58G
VL: B1 VL with V3E, S9T, V10A, V20I, H33Y, V59I
B6: C0021061 recombinant human IgG1 (antibody, V domains shown)
VH: EVQLLESGGGLVQPGGSLRLSCAASGFTFSSYAMSWVRQAPGKGLEWVSAKPTDAGSTYYADSVKGRFTISRDNSKNTLYLQMNSLRAEDTAVYYCARLRADLGLYMDLWGRGTLVTVSS
VL: QSVLTQPPSVSAAPGQKVTISCSGSSSNIGNHYVSWYQQLPGTAPKLLIYNTVYPKSGIPDRFSGSKSGTSATLGITGLQTGDEADYYCGTWDSSLSALVFGGGTKLTVL
B7: C0021133 recombinant human IgG1 (antibody, V domains shown)
VH: B1 VH with Y33H
VL: B1 VL with H33Y, V59I
B8: C0021133 scFv (scFv, V domains shown)
VH: B1 VH with Y33H
VL: B1 VL with H33Y, V59I
notes: scFv
B9: C0021141 scFv (scFv, V domains shown)
VH: B1 VH with R30Y, Y31P, Y33P, H34Q, V35G, I51Y, S52G, G53Y, S54G, G55I
VL: B6 VL with K17E, G30D, N51D, T52N, V53S, Y54E, P55R, K56P
notes: scFv
B10: C0021128 scFv (scFv, V domains shown)
VH: B1 VH with R30Q, D32E, Y33V, H34A, V35A, S54P, G55I, G56P, S57K, T58G
VL: B6 VL with N51D, T52N, V53A, Y54I, P55E, K56S, E84G, S95N
notes: scFv
B11: C0021022 recombinant human IgG1 (antibody, V domains shown)
VH: EVQLLESGGGLVQPGGSLRLSCAASGFTFSSYAMSWVRQAPGKGPEWVSAISGFSPYYADSVKGRFTISRDNSKNTLYLQMNSLRAEDTAVYYCARLRADLGLYMDLWGRGTLVTVSS
VL: B6 VL with N51D, T52N, V53S, Y54E, P55R, K56P
B12: C0021139 recombinant human IgG1 (antibody, V domains shown)
VH: B1 VH with R30Q, H34Q
VL: B1 VL with V20I, H33Y, T52N, T53S, V54E, L55R, S56T, V59I
B13: C0021065 recombinant human IgG1 (antibody, V domains shown)
VH: B11 VH with K74R
VL: B6 VL with N51D, V53D, Y54H, P55M, K56A
B14: C0021092 recombinant human IgG1 (antibody, V domains shown)
VH: B6 VH with S31R, K51H, P52T, T53H, D54S, A55P
VL: B6 VL with T52S, Y54A, P55R, K56P

Target: T1, THP-1 lysate derived human trimeric ARG2
Test: cell-based or functional assay

THP-1 lysate ARG2 EIA IC50 [nM] | Binder
10.9 | B1
9.64 | B2
6.93 | B3
4.59 | B4
5.17 | B5
5.81 | B6
7.38 | B7

Target: T2, recombinant human trimeric ARG2 enzyme …
Test: cell-based or functional assay

EC50, In Presence of rhARG2 (T cell proliferation) [nM] | Maximum % Proliferation, In Presence of rhARG2 [%] | Binder
137 | 91 | B4
86 | 84 | B5
149 | 110 | B6

Target: T3, biotinylated recombinant human trimeric …
Test: HTRF epitope competition, scFv titrated, competitor C0020187 IgG, on biotinylated human trimeric ARG2

IC50 [nM] | Binder
43.3 | B8
51.1 | B9
44.5 | B10

Target: T2, recombinant human trimeric ARG2 enzyme …
Test: cell-based or functional assay
Remark: another data set of the same source

EC50, In Presence of rhARG2 (T cell proliferation) [nM] | Maximum % Proliferation, In Presence of rhARG2 [%] | Binder
113 | 83 | B6
132 | 77 | B11
101 | 73 | B7
111 | 67 | B12
136 | 87 | B13
116 | 77 | B14

Target: T2, recombinant human trimeric ARG2 enzyme …
Test: cell-based or functional assay
Remark: another data set of the same source

Trimeric human ARG2 EIA IC50 [nM] | Binder
281 | B8
109 | B9
169 | B10

Target: T1, THP-1 lysate derived human trimeric ARG2
Test: cell-based or functional assay
Remark: another data set of the same source

IC50 (M) THP-1 ARG2 (healthy human plasma) [M] | IC50 (M) THP-1 ARG2 (no plasma) [M] | Binder
2.9e-09 | 6.79e-09 | B6
2.71e-09 | 5.81e-09 | B11
3.7e-09 | 6.68e-09 | B7
2.02e-09 | 5.75e-09 | B12
2.98e-09 | 5.99e-09 | B13
2.82e-09 | 6.56e-09 | B14
